Test results from the supplement of paper PMC10567573.

B1: NP_116010.1 (parent)
chain: HSLRAVSTDPPHHDHHDEFCLMP

Experiments:
[1] = variants of: B1; experiment: protein stability index of a GFP-peptide fusion (GPS, HEK-293T) (PSI 1-6); higher = more stable; settings: c terminus: native
[2] = variants of: B1; experiment: as above; settings: c terminus: native; remark: listed apart in the source

| Variant | protein stability index [1] | protein stability index [2] |
| --- | --- | --- |
| T8Q | 2.46 | 2.69 |
| T8A | 2.75 | 4.04 |
| T8M | 2.48 | 2.27 |
| T8H | 2.48 | 1.79 |
| T8L | 2.36 | 2.95 |
| T8K | 2.28 | 2.99 |
| T8N | 2.36 | 2.4 |
| T8C | 2.93 | 2.64 |
| T8E | 2.45 | 2.89 |
| T8V | 2.26 | 2.82 |
| T8S | 2.13 | 2.85 |
| T8W | 1.99 | 2.87 |
| T8I | 2.59 | 2.13 |
| T8R | 2.33 | 3.01 |
| T8F | 2.38 | 1.87 |
| T8Y | 2.54 | 2.14 |
| T8D | 2.53 | 2.23 |
| T8G | 2.68 | 2.59 |
| R4V | 2.23 | 1.96 |
| R4T | 3.08 | 2.84 |
| R4A | 3.09 | 1.82 |
| R4L | 2.73 | 3.03 |
| R4G | 3.32 | 2.64 |
| R4I | 2.92 | 1.55 |

| Variant | protein stability index [1] | protein stability index [2] |
| --- | --- | --- |
| R4Q | 3.06 | 1.83 |
| R4C | 2.69 | 3.21 |
| R4E | 3.58 | 2.41 |
| R4W | 2.38 | 2.9 |
| R4M | 2.45 | 2 |
| R4K | 2.58 | 1.8 |
| R4F | 2.11 | 2.22 |
| S2M | 2.41 | 2.38 |
| S2K | 2.58 | 1.89 |
| S2D | 3.12 | 2.45 |
| S2E | 2.65 | 2.29 |
| S2F | 2.24 | 3.2 |
| S2T | 2.04 | 2.11 |
| S2Q | 2.6 | 2.68 |
| S2I | 2.49 | 2.83 |
| S2H | 2.69 | 1.95 |
| S2N | 3.12 | 2.72 |
| S2L | 2.53 | 2.93 |
| S2Y | 2.5 | 3.18 |
| S2C | 2.64 | 2.73 |
| S2V | 2.21 | 2.88 |
| S2A | 2.31 | 3.34 |
| S2R | 2.73 | 1.58 |
| S2W | 1.9 | 1.23 |

| Variant | protein stability index [1] | protein stability index [2] |
| --- | --- | --- |
| D14K | 2.25 | 2.14 |
| D14G | 2.23 |  |
| D14W | 1.97 | 1.87 |
| D14I | 1.8 | 3.58 |
| D14S | 2.23 | 2.34 |
| D14N | 2.11 | 2.13 |
| D14E | 2.5 |  |
| D14M | 2.29 | 3.39 |
| D14L | 2.02 | 2.33 |
| D14V | 2.27 |  |
| D14C | 2.5 | 1.99 |
| D14Y | 2.29 |  |
| D14F | 1.99 | 1.83 |
| D14A | 2.52 | 2.35 |
| D14Q | 2.45 | 2.61 |
| D14R | 2 | 2.48 |
| A5D | 3.02 | 1.7 |
| A5H | 2.54 | 1.69 |
| A5F | 2.79 | 3.93 |
| A5M | 1.9 | 2.19 |
| A5L | 2.4 | 3.4 |
| A5S | 2.87 | 2.34 |
| A5Q | 2.5 | 2 |
| A5K | 2.94 | 2.07 |

| Variant | protein stability index [1] | protein stability index [2] |
| --- | --- | --- |
| A5G | 3.03 | 2.44 |
| A5T | 2.38 | 2.67 |
| A5I | 2.56 | 2.96 |
| A5E | 2.51 | 2.01 |
| A5W | 2.96 | 4.16 |
| A5N | 2.54 | 2.18 |
| A5C | 2.6 | 2.2 |
| A5V | 2.37 | 3.93 |
| D9S | 2.44 | 3.56 |
| D9C | 2.45 | 3.11 |
| D9G | 2.42 | 3.24 |
| D9V | 2.11 | 1.94 |
| D9W | 2.52 | 1.81 |
| D9M | 2.23 | 2.04 |
| D9Y | 2.37 | 2.37 |
| D9R | 2.2 |  |
| D9F | 2.44 | 3.37 |
| D9N | 2.38 | 1.93 |
| D9E | 2.48 | 1.95 |
| D9K | 2.44 | 1.84 |
| P10G | 2.46 | 1.84 |
| P10S | 2.03 | 2.05 |
| P10L | 2.43 | 3.21 |
| P10N | 2.27 | 1.91 |

| Variant | protein stability index [1] | protein stability index [2] |
| --- | --- | --- |
| P10D | 2.88 |  |
| P10C | 2.29 | 2.09 |
| P10A | 2.38 | 2.39 |
| P10H | 2.43 | 2.57 |
| P10Y | 2.4 | 2.47 |
| P10Q | 2.56 | 2.28 |
| P10R | 2.26 | 3.17 |
| P10I | 2.48 | 3.15 |
| P10T | 2.56 | 2.11 |
| P10W | 2.37 | 2.88 |
| P10E | 2.77 | 2.47 |
| P10K | 2.58 | 1.43 |
| P10V | 2.29 | 2.25 |
| P10M | 2.47 | 2.82 |
| P10F | 2.67 |  |
| P11Y | 2.26 | 3.15 |
| P11C | 2.44 | 1.57 |
| P11V | 2.21 | 1.74 |
| P11N | 2.5 | 2.41 |
| P11G | 2.59 | 2.46 |
| P11T | 2.24 | 1.9 |
| P11R | 2.42 | 2.66 |
| P11E | 2.72 | 2.81 |
| P11W | 2.16 | 2.29 |

| Variant | protein stability index [1] | protein stability index [2] |
| --- | --- | --- |
| P11F | 2.44 | 1.5 |
| P11Q | 2.56 | 1.99 |
| P11I | 2.58 | 2.28 |
| P11S | 2.34 | 2.58 |
| P11D | 2.73 | 2.3 |
| P11A | 2.67 | 2.67 |
| P11M | 2.71 | 2.95 |
| P11K | 2.65 | 2.58 |
| P11L | 2.55 | 4.46 |
| H1E | 3.5 | 2.41 |
| H1F | 2.24 |  |
| H1A | 3.26 | 1.49 |
| H1R | 2.68 | 2.35 |
| H1G | 3.41 | 2.65 |
| H1C | 2.68 | 2.48 |
| H1D | 3.42 | 3.31 |
| H1L | 3.11 | 1.68 |
| H1I | 2.75 | 1.82 |
| H1P | 3.39 | 2.21 |
| H1Q | 3.06 | 1.9 |
| H1T | 3.55 | 2.54 |
| H1Y | 2.63 | 1.19 |
| H1S | 3.04 | 2.26 |
| H1W | 2.18 | 1.93 |

| Variant | protein stability index [1] | protein stability index [2] |
| --- | --- | --- |
| H1M | 2.8 | 1.72 |
| H1N | 3.37 | 1.64 |
| H1K | 3.29 | 2.43 |
| H13V | 2.33 | 1.99 |
| H13A | 2.31 | 2.86 |
| H13D | 3.07 | 2.18 |
| H13F | 2.24 | 3.29 |
| H13N | 2.39 | 1.91 |
| H13M | 2.33 | 3.31 |
| H13K | 2.33 | 2.31 |
| H13W | 2.4 | 1.65 |
| H13E | 3 | 2.37 |
| H13L | 2.73 | 2.11 |
| H13R | 2.21 |  |
| H13T | 2.46 | 2.38 |
| H13I | 2.39 | 2.16 |
| H13Q | 2.59 | 1.89 |
| H13S | 2.5 | 2.59 |
| H13Y | 2.5 | 2.08 |
| H13C | 2.58 | 2.89 |
| H13G | 2.67 | 1.73 |
| S7W | 2.31 | 3.98 |
| S7F | 2.23 |  |
| S7G | 2.58 | 2.83 |

| Variant | protein stability index [1] | protein stability index [2] |
| --- | --- | --- |
| S7I | 2.4 | 2.93 |
| S7T | 2.33 | 3.06 |
| S7H | 2.53 |  |
| S7V | 2.39 | 2.7 |
| S7L | 2.08 |  |
| S7R | 2.36 | 1.88 |
| S7M | 2.74 | 2.65 |
| S7Q | 2.58 | 3.14 |
| S7Y | 2.31 | 2.02 |
| S7C | 2.48 | 2.82 |
| S7D | 2.81 | 2.26 |
| S7N | 2.27 | 2.64 |
| H15D | 3.15 | 2.08 |
| H15E | 3 | 1.67 |
| H15K | 2.6 | 2.5 |
| H15A | 2.57 | 1.93 |
| H15G | 2.88 | 2.48 |
| H15C | 2.52 | 4.24 |
| H15F | 2.32 | 2.69 |
| H15L | 2.33 | 1.7 |
| V6M | 2.51 | 2.68 |
| V6G | 2.9 | 2.49 |
| V6I | 2.27 | 2.17 |
| V6L | 2.35 | 3.23 |

| Variant | protein stability index [1] | protein stability index [2] |
| --- | --- | --- |
| V6A | 3 | 2.57 |
| V6F | 1.92 | 2.8 |
| V6Y | 2.41 | 3.34 |
| V6K | 2.72 | 2.02 |
| V6S | 2.62 | 3.49 |
| V6D | 2.64 | 2.57 |
| V6N | 2.98 | 2.76 |
| V6R | 2.19 | 2.37 |
| V6C | 2.52 | 2.93 |
| H12F | 2.62 | 2.49 |
| H12S | 2.8 | 2.33 |
| H12M | 2.52 | 2.12 |
| H12W | 2.27 | 3.29 |
| H12G | 2.68 | 2.16 |
| H12I | 2.53 | 1.98 |
| H12R | 2.32 | 2.76 |
| H12Y | 2.46 | 2.19 |
| H12E | 2.87 | 2.75 |
| H12L | 2.79 | 2.83 |
| H12K | 2.87 | 3.08 |
| H12C | 2.37 | 2.4 |
| H12V | 2.73 | 2.67 |
| H12A | 2.44 | 1.65 |
| H12N | 2.58 | 2.79 |

| Variant | protein stability index [1] | protein stability index [2] |
| --- | --- | --- |
| H12D | 2.73 | 2.2 |
| H12Q | 2.69 | 2.12 |
| L3G | 3.07 | 2.46 |
| L3R | 2.82 | 2.21 |
| L3I | 2.39 | 3.18 |
| L3H | 2.57 | 2.9 |
| L3Y | 2.38 |  |
| L3M | 2.43 | 3.08 |
| L3E | 2.28 | 2.11 |
| L3D | 2.5 | 2.14 |
| L3Q | 2.78 | 2.52 |
| L3N | 3.45 | 2.59 |
| L3V | 2.75 | 1.7 |
| L3S | 3.2 | 2.59 |
| L3T | 2.22 | 2.75 |
| L3K | 2.76 | 2.04 |
| L3W | 2.23 | 2.47 |
| L3A | 2.35 | 2.02 |
| L3C | 2.38 | 1.7 |
